{"source": "paper PMC2172130", "molecular_target": "tomosyn (expressed in Sf9 cells) (UniProt Q9WU70)", "sequence (Q9WU70 whole entry)": "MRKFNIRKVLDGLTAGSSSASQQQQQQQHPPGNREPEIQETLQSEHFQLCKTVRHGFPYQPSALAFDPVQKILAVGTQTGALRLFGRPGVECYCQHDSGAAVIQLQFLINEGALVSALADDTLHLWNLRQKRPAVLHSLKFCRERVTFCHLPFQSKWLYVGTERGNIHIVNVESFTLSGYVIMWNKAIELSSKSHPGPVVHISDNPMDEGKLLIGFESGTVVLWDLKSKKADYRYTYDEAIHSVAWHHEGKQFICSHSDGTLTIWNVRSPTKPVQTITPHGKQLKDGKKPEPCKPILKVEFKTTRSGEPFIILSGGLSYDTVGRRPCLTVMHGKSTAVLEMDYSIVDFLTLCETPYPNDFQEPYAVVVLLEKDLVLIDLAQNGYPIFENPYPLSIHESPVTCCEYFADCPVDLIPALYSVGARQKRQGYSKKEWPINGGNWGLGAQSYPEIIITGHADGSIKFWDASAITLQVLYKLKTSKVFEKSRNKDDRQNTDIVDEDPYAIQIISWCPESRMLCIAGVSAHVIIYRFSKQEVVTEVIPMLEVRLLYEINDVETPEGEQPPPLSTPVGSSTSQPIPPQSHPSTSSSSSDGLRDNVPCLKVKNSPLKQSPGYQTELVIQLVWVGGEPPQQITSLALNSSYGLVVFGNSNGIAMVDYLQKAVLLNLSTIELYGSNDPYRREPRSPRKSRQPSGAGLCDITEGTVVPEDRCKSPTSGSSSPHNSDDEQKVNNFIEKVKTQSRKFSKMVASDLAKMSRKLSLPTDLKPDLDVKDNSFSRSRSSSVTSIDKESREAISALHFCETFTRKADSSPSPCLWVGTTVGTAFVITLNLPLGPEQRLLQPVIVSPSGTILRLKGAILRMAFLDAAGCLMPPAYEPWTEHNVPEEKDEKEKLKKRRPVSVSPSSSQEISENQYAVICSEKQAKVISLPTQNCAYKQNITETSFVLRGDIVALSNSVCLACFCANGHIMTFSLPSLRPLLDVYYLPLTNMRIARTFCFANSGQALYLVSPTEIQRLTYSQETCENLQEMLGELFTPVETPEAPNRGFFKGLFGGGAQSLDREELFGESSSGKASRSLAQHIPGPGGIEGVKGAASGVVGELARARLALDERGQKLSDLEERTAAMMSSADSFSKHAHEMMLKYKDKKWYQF", "experiment": "far-Western, overlay or dot blot", "data": [{"substance": "syntaxin-1, nonphosphorylated form (recombinant) (from UniProt P32851 1-288) (natural protein)", "values": [{"measurement": "Kd", "value": 120, "unit": "nM"}]}]}
